Test results published in publication PMC5158082 (PLoS Pathogens, 2016).

Experiments:
native MS = target: the molecule itself; assay: native MS
SpaR^STREP = target: T1, SpaR^STREP (Salmonella enterica serovar Typhimurium, UniProt P40701 1-263); assay: native MS; conditions: both partners purified
T1 construct: also called SpaR^STREP of the SpaPR^STREP complex
T1 sequence: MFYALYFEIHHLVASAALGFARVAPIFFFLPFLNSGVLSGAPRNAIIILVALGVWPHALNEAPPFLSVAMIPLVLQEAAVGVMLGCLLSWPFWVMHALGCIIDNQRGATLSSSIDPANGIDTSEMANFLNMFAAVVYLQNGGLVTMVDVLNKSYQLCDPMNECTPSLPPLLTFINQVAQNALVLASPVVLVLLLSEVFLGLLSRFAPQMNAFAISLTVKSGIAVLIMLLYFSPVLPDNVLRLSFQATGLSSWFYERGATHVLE

B1: SpaP (untagged, co-expressed in E. coli) (natural protein)
chain: MGNDISLIALLAFSTLLPFIIASGTCFVKFSIVFVMVRNALGLQQIPSNMTLNGVALLLSMFVMWPIMHDAYVYFEDEDVTFNDISSLSKHVDEGLDGYRDYLIKYSDRELVQFFENAQLKRQYGEETETVKRDKDEIEKPSIFALLPAYALSEIKSAFKIGFYLYLPFVVVDLVVSSVLLALGMMMMSPVTISTPIKLVLFVALDGWTLLSKGLILQYMDIAT
notes: also called SpaP of the SpaPR complex; SpaP5R1
stoichiometry N (native MS): 5 | stoichiometry N (SpaR^STREP): 5 SpaP per SpaR^STREP
